From publication doi:10.1101/2025.02.19.638559, “The architecture, assembly, and evolution of a complex flagellar motor” (bioRxiv, 2025)

Columns and labels:
[1] = molecular target: FlgY_(15–172), FlgY without the predicted signal peptide (C. jejuni 81-176); experiment: SEC; Superdex 200 Increase 10/300 GL; 20 mM Tris-HCl pH 8.0, 300 mM NaCl
[2] = molecular target: FlgY_(90–172) (C. jejuni 81-176); experiment: as above
[3] = molecular target: T1, PflB_(113–820) (C. jejuni 81-176, UniProt A0A6F9L7Y3 113-820); experiment: cryo-EM structure; single-particle cryo-EM of the purified PflA16-788 and PflB113-820 complex at 0.4 mg/ml; 3.23 Å; conditions: both partners purified
T1 construct: PflB of C. jejuni 81-176, residues 113-820; 178-820 resolved in the cryo-EM structure; also called PflB_(178–820) (the part built in the model)
T1 sequence: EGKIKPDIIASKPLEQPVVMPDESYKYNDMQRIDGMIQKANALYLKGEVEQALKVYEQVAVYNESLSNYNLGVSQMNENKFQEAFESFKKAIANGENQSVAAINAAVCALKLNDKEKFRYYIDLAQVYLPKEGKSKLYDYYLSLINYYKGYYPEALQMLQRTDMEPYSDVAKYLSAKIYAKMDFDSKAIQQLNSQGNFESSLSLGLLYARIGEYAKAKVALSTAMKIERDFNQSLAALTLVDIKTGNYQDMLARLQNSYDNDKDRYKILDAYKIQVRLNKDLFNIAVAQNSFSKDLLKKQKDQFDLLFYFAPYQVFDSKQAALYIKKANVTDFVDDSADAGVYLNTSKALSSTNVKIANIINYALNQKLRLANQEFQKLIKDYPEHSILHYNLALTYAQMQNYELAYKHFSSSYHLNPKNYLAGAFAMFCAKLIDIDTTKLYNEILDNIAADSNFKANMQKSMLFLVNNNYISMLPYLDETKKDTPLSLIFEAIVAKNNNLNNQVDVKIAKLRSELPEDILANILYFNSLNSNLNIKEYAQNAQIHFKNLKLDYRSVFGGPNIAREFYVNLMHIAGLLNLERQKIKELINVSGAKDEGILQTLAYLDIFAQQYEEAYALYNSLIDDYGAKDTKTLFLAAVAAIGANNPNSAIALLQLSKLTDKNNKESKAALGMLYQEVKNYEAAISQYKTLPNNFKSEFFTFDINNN

[4] = molecular target: T2, PflA_(16–788)-Strep (C. jejuni 81-176, UniProt Q46092 16-788); experiment: MST
T2 chain: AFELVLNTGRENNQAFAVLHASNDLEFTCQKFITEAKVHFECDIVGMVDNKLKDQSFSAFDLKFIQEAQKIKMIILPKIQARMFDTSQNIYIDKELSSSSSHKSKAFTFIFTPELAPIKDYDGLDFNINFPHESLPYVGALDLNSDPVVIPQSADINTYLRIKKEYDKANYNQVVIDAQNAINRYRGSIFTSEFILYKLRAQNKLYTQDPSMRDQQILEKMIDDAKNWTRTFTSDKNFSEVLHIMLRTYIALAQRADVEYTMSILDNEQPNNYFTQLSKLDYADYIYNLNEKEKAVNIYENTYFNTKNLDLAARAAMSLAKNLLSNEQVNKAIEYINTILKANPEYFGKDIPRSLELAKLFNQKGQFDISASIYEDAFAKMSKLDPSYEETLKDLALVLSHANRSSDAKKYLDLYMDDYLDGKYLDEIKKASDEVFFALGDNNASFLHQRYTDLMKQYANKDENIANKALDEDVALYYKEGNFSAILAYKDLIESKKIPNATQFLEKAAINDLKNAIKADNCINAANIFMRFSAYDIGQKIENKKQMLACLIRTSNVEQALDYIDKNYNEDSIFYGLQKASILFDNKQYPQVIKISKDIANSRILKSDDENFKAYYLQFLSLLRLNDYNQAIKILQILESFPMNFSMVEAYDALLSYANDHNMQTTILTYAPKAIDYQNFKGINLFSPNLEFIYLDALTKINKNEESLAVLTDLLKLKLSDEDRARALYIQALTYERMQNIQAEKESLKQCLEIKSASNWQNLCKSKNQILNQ

Molecule: FlgY_(15–172), FlgY without the predicted signal peptide (domain or fragment)
- stoichiometry N [1]: 2

Molecule: FlgY_(90–172) (domain or fragment)
- stoichiometry N [2]: 2

B1: PflA_(16–788) of the purified PflA_(16–788) and PflB_(113–820) complex (domain or fragment)
chain: AFELVLNTGRENNQAFAVLHASNDLEFTCQKFITEAKVHFECDIVGMVDNKLKDQSFSAFDLKFIQEAQKIKMIILPKIQARMFDTSQNIYIDKELSSSSSHKSKAFTFIFTPELAPIKDYDGLDFNINFPHESLPYVGALDLNSDPVVIPQSADINTYLRIKKEYDKANYNQVVIDAQNAINRYRGSIFTSEFILYKLRAQNKLYTQDPSMRDQQILEKMIDDAKNWTRTFTSDKNFSEVLHIMLRTYIALAQRADVEYTMSILDNEQPNNYFTQLSKLDYADYIYNLNEKEKAVNIYENTYFNTKNLDLAARAAMSLAKNLLSNEQVNKAIEYINTILKANPEYFGKDIPRSLELAKLFNQKGQFDISASIYEDAFAKMSKLDPSYEETLKDLALVLSHANRSSDAKKYLDLYMDDYLDGKYLDEIKKASDEVFFALGDNNASFLHQRYTDLMKQYANKDENIANKALDEDVALYYKEGNFSAILAYKDLIESKKIPNATQFLEKAAINDLKNAIKADNCINAANIFMRFSAYDIGQKIENKKQMLACLIRTSNVEQALDYIDKNYNEDSIFYGLQKASILFDNKQYPQVIKISKDIANSRILKSDDENFKAYYLQFLSLLRLNDYNQAIKILQILESFPMNFSMVEAYDALLSYANDHNMQTTILTYAPKAIDYQNFKGINLFSPNLEFIYLDALTKINKNEESLAVLTDLLKLKLSDEDRARALYIQALTYERMQNIQAEKESLKQCLEIKSASNWQNLCKSKNQILNQ
notes: PflA of C. jejuni 81-176, residues 16-788; only 16-163 (β-sandwich domain and flexible loop) are resolved in the cryo-EM structure; PflA16-788 was cloned both in pET22b (C-terminal 6×His) and in pET26b (C-terminal Strep-tag); also called PflA_(16–163) (the part resolved in the map)
- stoichiometry N [3]: 1

B2: FlgY_(15–172), FlgY without the predicted signal peptide (domain or fragment)
chain: VFGAEQDCEQYFEARKAQIELQTREFDEARQSLEAYKASFEALQKERLENLEKKEAEVNATLAKIEELKLENARLVEEQQKILNSINDKTQGRVKEIYSQMKDAAIADVLSQMDAEDASKIMLSLESRKISGVLSKMDPKKASELTLLLKNLDNNASN
- Kd [4]: 3.5 µM
